Assay results as given in the supplement of paper PMC9112550, “Optimization of the antimicrobial peptide Bac7 by deep mutational scanning” (BMC Biology, 2022).

System: Escherichia coli TOP10
Test: shrunken log2 fold change of peptide-encoding DNA abundance (4.5 h post-induction vs induction); higher = less antimicrobial activity (less host growth inhibition)
Settings: time post-induction: 4.5 h; library: site-saturation at positions 5, 18, 19, 20
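Note: peptides expressed intracellularly from a pBAD plasmid library in pooled LB shake-flask culture, induced with 0.3% L-arabinose, DNA abundance read by NGS, three biological replicates, DESeq2 with apeglm shrinkage.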

Row | Sequence | shrunken log2 fold change
1 | RRIRLRPPRLPRPRPRPPTYPRP | -0.304
2 | RRIRFRPPRLPRPRPRPLFNPRP | -0.605
3 | RRIRRRPPRLPRPRPRPKMHPRP | 0.443
4 | RRIRCRPPRLPRPRPRPGLLPRP | 0.0187
5 | RRIRMRPPRLPRPRPRPHQKPRP | -0.0408
6 | RRIRERPPRLPRPRPRPLCAPRP | -0.0485
7 | RRIRFRPPRLPRPRPRPEVKPRP | -0.00444
8 | RRIRERPPRLPRPRPRPPCIPRP | -0.163
9 | RRIRERPPRLPRPRPRPGGCPRP | 1.44
10 | RRIRKRPPRLPRPRPRPHDPPRP | 0.282
11 | RRIRWRPPRLPRPRPRPGRKPRP | -0.0532
12 | RRIRRRPPRLPRPRPRPECTPRP | 0.517
13 | RRIRRRPPRLPRPRPRPARYPRP | 0.317
14 | RRIRMRPPRLPRPRPRPCACPRP | 0.0487
15 | RRIRWRPPRLPRPRPRPQAGPRP | 0.335
16 | RRIRFRPPRLPRPRPRPDPGPRP | -0.162
17 | RRIRGRPPRLPRPRPRPNVKPRP | 0.292
18 | RRIRTRPPRLPRPRPRPYWWPRP | -0.554
19 | RRIRARPPRLPRPRPRPMFCPRP | 0.211
20 | RRIRMRPPRLPRPRPRPASEPRP | 0.145
21 | RRIRPRPPRLPRPRPRPDKQPRP | 0.0524
22 | RRIRQRPPRLPRPRPRPSIEPRP | -0.373
23 | RRIRGRPPRLPRPRPRPACHPRP | 0.889
24 | RRIRQRPPRLPRPRPRPFRQPRP | -0.148
25 | RRIRFRPPRLPRPRPRPYEAPRP | -0.493

Row | Sequence | shrunken log2 fold change
26 | RRIRGRPPRLPRPRPRPIFRPRP | 0.0691
27 | RRIRMRPPRLPRPRPRPTVGPRP | 0.146
28 | RRIRFRPPRLPRPRPRPNMQPRP | -0.846
29 | RRIRHRPPRLPRPRPRPCQVPRP | -0.345
30 | RRIRGRPPRLPRPRPRPMDTPRP | 1.12
31 | RRIRARPPRLPRPRPRPRLYPRP | 0.501
32 | RRIRYRPPRLPRPRPRPIFPPRP | -0.23
33 | RRIRKRPPRLPRPRPRPPKTPRP | 0.0147
34 | RRIRMRPPRLPRPRPRPMQNPRP | 0.365
35 | RRIRPRPPRLPRPRPRPYDFPRP | -0.194
36 | RRIRARPPRLPRPRPRPVAAPRP | 1.54
37 | RRIRYRPPRLPRPRPRPCYYPRP | -1.03
38 | RRIRIRPPRLPRPRPRPDWWPRP | -0.00879
39 | RRIRARPPRLPRPRPRPDQRPRP | 0.267
40 | RRIRRRPPRLPRPRPRPWWKPRP | 0.226
41 | RRIRERPPRLPRPRPRPCAAPRP | -0.244
42 | RRIRYRPPRLPRPRPRPQNFPRP | -0.00184
43 | RRIRSRPPRLPRPRPRPPPFPRP | 0.449
44 | RRIRYRPPRLPRPRPRPYPQPRP | -0.466
45 | RRIRARPPRLPRPRPRPDRSPRP | -0.0282
46 | RRIRFRPPRLPRPRPRPPHTPRP | 0.126
47 | RRIRCRPPRLPRPRPRPTDDPRP | 2.22
48 | RRIRARPPRLPRPRPRPKIMPRP | -0.0664
49 | RRIRRRPPRLPRPRPRPGAPPRP | 0.891
50 | RRIRWRPPRLPRPRPRPRAYPRP | 0.224
